Test [1] addresses FhbA from B. hermsii strain MAN (B. hermsii strain MAN). Kind of test: radioligand binding; OspE, FhbA or Tuf coated on microtitre plates (5–25 µg/ml in PBS, 4°C, 12 h), blocked with 0.5% BSA/PBS; ^125I-FH19-20 (50,000 cpm/well) mixed with serial dilutions of FH19-20 mutants; 37°C, 60 min; IC50 from fitted inhibition curves, three experiments in triplicate.
Test [2] deals with outer surface protein E (OspE) from B. burgdorferi sensu stricto strain N40 (B. burgdorferi sensu stricto strain N40). The description is as above.

For the substance “FH19-20 D1119G (from UniProt P08603 1107-1231) (domain or fragment)”, the IC50mut/IC50wt in test [1] stood at 0.9; in test [2], 0.6.
Regarding “FH19-20 E1198A (from UniProt P08603 1107-1231) (domain or fragment)”, the IC50mut/IC50wt in test [1] turned out to be 25.1; in test [2], 24.7.
The like results for “FH19-20 K1186A (from UniProt P08603 1107-1231) (domain or fragment)” were, in that order, 0.5 and 0.2.
Taken in the same sequence, the figures for “FH19-20 K1188A (from UniProt P08603 1107-1231) (domain or fragment)” were 1.6 and 0.8.
For “FH19-20 L1189R (from UniProt P08603 1107-1231) (domain or fragment)”, the IC50mut/IC50wt in test [1] worked out at 4.9; in test [2] it was 2.9.
Taken in the same sequence, the figures for “FH19-20 Q1139A (from UniProt P08603 1107-1231) (domain or fragment)” were 1.1 and 1.2.
In the case of “FH19-20 R1182A (from UniProt P08603 1107-1231) (domain or fragment)”, the values for the IC50mut/IC50wt in test [1] and in test [2] were 18 and 3, respectively.
For “FH19-20 R1203A (from UniProt P08603 1107-1231) (domain or fragment)”, the IC50mut/IC50wt in test [1] was determined as 41.9; in test [2], 4.7.
Taken in the same sequence, the figures for “FH19-20 R1206A (from UniProt P08603 1107-1231) (domain or fragment)” were 3.1 and 3.4.
Taken in the same sequence, the figures for “FH19-20 R1210A (from UniProt P08603 1107-1231) (domain or fragment)” were 1.8 and 1.3.
As to “FH19-20 R1215Q (from UniProt P08603 1107-1231) (domain or fragment)”, the IC50mut/IC50wt in test [1] worked out at 2; in test [2] it was 33.8.
As to “FH19-20 T1184R (from UniProt P08603 1107-1231) (domain or fragment)”, the IC50mut/IC50wt turned out to be 1.7 in test [1] and 1.2 in test [2].
Regarding “FH19-20 W1157L (from UniProt P08603 1107-1231) (domain or fragment)”, the IC50mut/IC50wt in test [1] and in test [2] was 1.4 in each case.
“FH19-20 W1183L (from UniProt P08603 1107-1231) (domain or fragment)”: the results for the IC50mut/IC50wt in test [1] and in test [2] were 66.4 and 97.1, respectively.

For the origin of these results see publication PMC3630169.
